This passage reports IC50 results from article PMC10229695.

In one series the test system is NLRP3 WT (human). The experiment in a line: competition pulldown (streptavidin beads, western blot). Conditions: elution from biotinylated mtDNA beads, EMSA and pulldown: 50 mM Tris pH 7.4, 100 mM NaCl, 2 mM MgCl2, 12% glycerol, 4 C overnight (EMSA plus 2e-5 mg/ml salmon sperm DNA, 1e-5 uM ox-mtDNA), Fig ….
Series [1] deals with NLRP3 L266F (NOMID, C790T) (human). The series is described as above. The settings on record: elution from biotinylated mtDNA beads; oxidized guanine (8-oxoguanine); EMSA and pulldown: 50 mM Tris pH 7.4, 100 mM NaCl, 2 mM MgCl2, 12% glycerol, 4 C overnight (EMSA plus 2e-5 mg/ml salmon sperm DNA, 1e-5 uM ox-mtDNA); Fig …. (A gel shift assay detects complexes by their altered migration in electrophoresis.)

Usually IC50 stands for the midpoint of a concentration-inhibition curve. As to “non-oxidized mtDNA competitor (unlabeled)”, in the series with NLRP3 WT (human) (R2 0.98, abstract prints 4 nM), the concentration for half-maximal inhibition (IC50) was 4.8 nM.
For the substance ox-mtDNA competitor (unlabeled), the IC50 in series [1] is 8.1 nM; with NLRP3 WT (human) (poor fit, R2 0.6, text prints 247 nM, oxidized guanine (8-oxoguanine)), 247 nM.
